Reference: patent US20190031760A1 (Hoffmann-La Roche, published 2019)
Each block holds one binder with its values, some of them ahead of it.

What was measured:
[1] = molecular target: T1, human ASGPR H1 on ASGPR-positive hepatic cells (HepG2, primary human hepatocytes, Huh-7) (human, UniProt P07306 1-291); test: FACS on HepG2 cells, human IgG1 in a dilution row up to 20 µg/ml, 30 min at 4°C, FITC anti-human IgG Fc secondary
T1 construct: whole, on cells; Endogenous receptor on cells; the antibodies were selected on H1; also called surface-exposed ASGPR
T1 sequence (looked up): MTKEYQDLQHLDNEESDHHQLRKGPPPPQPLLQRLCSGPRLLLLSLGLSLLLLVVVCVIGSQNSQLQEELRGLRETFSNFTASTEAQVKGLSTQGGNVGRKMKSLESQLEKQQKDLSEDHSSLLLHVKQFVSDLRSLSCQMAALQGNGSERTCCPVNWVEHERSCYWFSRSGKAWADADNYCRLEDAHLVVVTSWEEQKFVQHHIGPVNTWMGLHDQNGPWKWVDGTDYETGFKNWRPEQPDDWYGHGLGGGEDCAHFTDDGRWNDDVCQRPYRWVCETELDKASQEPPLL

[2] = molecular target: T1, human ASGPR H1 on ASGPR-positive …; test: FACS on HepG2 cells, FITC-labeled IgG 30 µg/ml bound at 4°C, washed, then 37°C for up to 120 min; PE anti-Fc detection of surface antibody
[3] = molecular target: T1, human ASGPR H1 on ASGPR-positive …; test: FACS on HepG2 cells, human IgG1 at 0.01 to 10 µg/ml
[4] = molecular target: T1, human ASGPR H1 on ASGPR-positive …; test: FACS on HepG2 cells, human IgG1 at 30 µg/ml, 30 min at 4°C, FITC anti-human IgG Fc secondary F(ab')2
[5] = molecular target: T2, avi-Fc-human ASGPR H1 stalk CRD (human, biotinylated at the N-terminal Avi tag); test: SPR (ProteOn XPR36), antigen captured by neutravidin, Fab as analyte;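 for Kd: antigen surface loaded to 200, 400 or 800 RU in PBST pH 7.4, sensorgrams referenced against a buffer-only in-line channel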;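 for koff: antigen surface loaded to 200, 400 or 800 RU in PBST pH 7.4, sensorgrams referenced against a buffer-only in-line channel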;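 for kon: antigen surface loaded to 200, 400 or 800 RU in PBST pH 7.4, sensorgrams referenced against a buffer-only in-line channel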
T2 construct: Homodimeric (bivalent) Fc fusion of the human ASGPR H1 ECD (stalk and CRD); also called huASGPR H1 stalk CRD; Fc-stalk-CRD

[6] = molecular target: T3, avi-Fc-human ASGPR H1 stalk (human, biotinylated at the N-terminal Avi tag); test: as above
T3 construct: Homodimeric Fc fusion (wild type Fc); also called huASGPR H1 stalk; Fc-stalk

[7] = molecular target: T4, avi-Fc-cynomolgus ASGPR H1 stalk (cynomolgus, biotinylated at the N-terminal Avi tag); test: as above
T4 construct: Homodimeric Fc fusion (wild type Fc); also called cyASGPR H1 stalk

[8] = molecular target: T5, avi-Fc-human CLEC10A stalk CRD (human, biotinylated at the N-terminal Avi tag); test: as above
T5 construct: Homodimeric Fc fusion of the human CLEC10A ECD, closest homologue of ASGPR H1, used as specificity control; also called huCLEC10A stalk CRD

[9] = molecular target: T6, avi-Fc-human ASGPR H1 CRD (human, UniProt P0DOX5 223-449 = IgG part, biotinylated at the N-terminal Avi tag); test: SPR (ProteOn XPR36), antigen captured by neutravidin, antibody construct as analyte
T6 construct: also called Fc-CRD; hu/cyASGPR H1 CRD

[10] = molecular target: T1, human ASGPR H1 on ASGPR-positive …; test: FACS on HepG2 cells, antibody 1.25, 6 and 30 µg/ml without or with Alexa488 asialofetuin (100 µg/ml), APC anti-human IgG Fc detection

T4 sequence (chain, as listed by the source limits assumed): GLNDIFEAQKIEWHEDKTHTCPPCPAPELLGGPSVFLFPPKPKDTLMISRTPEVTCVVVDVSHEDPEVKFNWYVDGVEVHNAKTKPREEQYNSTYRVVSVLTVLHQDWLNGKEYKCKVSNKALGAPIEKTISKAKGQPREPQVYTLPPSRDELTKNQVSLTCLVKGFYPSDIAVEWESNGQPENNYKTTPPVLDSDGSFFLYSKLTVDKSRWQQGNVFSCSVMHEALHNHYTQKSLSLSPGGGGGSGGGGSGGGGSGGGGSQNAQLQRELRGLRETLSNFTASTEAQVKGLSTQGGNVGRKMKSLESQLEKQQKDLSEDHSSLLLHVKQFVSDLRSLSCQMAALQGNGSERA
T3 sequence (chain, as listed by the source limits assumed): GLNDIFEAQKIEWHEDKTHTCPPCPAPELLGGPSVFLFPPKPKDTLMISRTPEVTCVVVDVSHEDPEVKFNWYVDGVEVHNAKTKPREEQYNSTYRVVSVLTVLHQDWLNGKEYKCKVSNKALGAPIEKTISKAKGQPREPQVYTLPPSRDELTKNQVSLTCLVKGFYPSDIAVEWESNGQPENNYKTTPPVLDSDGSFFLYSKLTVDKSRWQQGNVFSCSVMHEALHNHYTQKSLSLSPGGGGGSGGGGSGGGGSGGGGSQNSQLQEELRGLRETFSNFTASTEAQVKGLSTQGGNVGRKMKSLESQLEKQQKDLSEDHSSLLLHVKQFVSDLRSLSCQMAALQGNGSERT
T5 sequence (chain, as listed by the source limits assumed): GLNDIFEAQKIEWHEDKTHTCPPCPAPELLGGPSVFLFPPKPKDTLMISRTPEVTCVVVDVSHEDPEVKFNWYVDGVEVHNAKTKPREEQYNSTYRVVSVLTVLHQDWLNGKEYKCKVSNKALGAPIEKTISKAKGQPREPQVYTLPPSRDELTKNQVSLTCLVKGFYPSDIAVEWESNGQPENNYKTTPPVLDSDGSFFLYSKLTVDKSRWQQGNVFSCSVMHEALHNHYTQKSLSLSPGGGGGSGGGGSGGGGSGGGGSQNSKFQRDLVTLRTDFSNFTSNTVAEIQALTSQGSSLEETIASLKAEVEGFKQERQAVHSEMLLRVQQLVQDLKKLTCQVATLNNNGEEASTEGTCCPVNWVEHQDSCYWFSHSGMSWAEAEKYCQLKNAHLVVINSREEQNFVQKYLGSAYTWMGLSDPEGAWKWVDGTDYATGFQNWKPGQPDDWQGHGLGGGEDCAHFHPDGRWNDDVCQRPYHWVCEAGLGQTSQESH

B1: 51A12_A6 human IgG1 antibody (antibody, V domains shown)
VH: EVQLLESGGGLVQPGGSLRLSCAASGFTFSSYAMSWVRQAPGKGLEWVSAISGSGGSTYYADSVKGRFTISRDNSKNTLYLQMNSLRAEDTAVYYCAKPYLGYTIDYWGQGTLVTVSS
VL: SSELTQDPAVSVALGQTVRITCQGDSLRSYYASWYQQKPGQAPVLVIYGKNNRPSGIPDRFSGSSSGNTASLTITGAQAEDEADYYCNSRTYSYNRAVRNFGGGTKLTVL
notes: also called 51A12_A6 IgG1-converted antibody
binding result [1]: binds

B2: 51A12_E7 human IgG1 antibody (antibody, V domains shown)
VH: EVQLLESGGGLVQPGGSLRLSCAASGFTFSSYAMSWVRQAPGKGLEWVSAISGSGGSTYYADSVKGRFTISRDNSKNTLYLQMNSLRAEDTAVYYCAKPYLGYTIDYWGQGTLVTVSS
VL: SSELTQDPAVSVALGQTVRITCQGDSLRSYYASWYQQKPGQAPVLVIYGKNNRPSGIPDRFSGSSSGNTASLTITGAQAEDEADYYCNSRDYRYNRAVRPFGGGTKLTVL
notes: also called 51A12_E7 IgG1-converted antibody
binding result [2]: binds

B3: 51A12_H6 human IgG1 antibody (antibody, V domains shown)
VH: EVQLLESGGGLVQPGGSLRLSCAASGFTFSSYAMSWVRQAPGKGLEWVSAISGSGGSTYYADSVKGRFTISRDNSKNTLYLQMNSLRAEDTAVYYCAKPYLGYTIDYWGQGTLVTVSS
VL: SSELTQDPAVSVALGQTVRITCQGDSLRSYYASWYQQKPGQAPVLVIYGKNNRPSGIPDRFSGSSSGNTASLTITGAQAEDEADYYCNSRDYKWNRVVRHFGGGTKLTVL
notes: also called 51A12_H6 IgG1-converted antibody
binding result [1]: binds

B4: 51A12_C7 human IgG1 antibody (antibody, V domains shown)
VH: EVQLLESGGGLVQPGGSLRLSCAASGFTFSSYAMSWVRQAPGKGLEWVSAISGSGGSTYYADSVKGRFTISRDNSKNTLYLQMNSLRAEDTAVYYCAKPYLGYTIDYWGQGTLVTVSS
VL: SSELTQDPAVSVALGQTVRITCQGDSLRSYYASWYQQKPGQAPVLVIYGKNNRPSGIPDRFSGSSSGNTASLTITGAQAEDEADYYCNSRDIRYNRVVRPFGGGTKLTVL
notes: also called 51A12_C7 IgG1-converted antibody
binding result [2]: binds

B5: 51A12_H3 human IgG1 antibody (antibody, V domains shown)
VH: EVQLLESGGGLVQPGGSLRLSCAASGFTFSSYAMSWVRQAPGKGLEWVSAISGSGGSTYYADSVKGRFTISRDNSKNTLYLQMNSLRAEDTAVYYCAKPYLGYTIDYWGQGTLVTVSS
VL: SSELTQDPAVSVALGQTVRITCQGDSLRSYYASWYQQKPGQAPVLVIYGKNNRPSGIPDRFSGSSSGNTASLTITGAQAEDEADYYCNSRDYKFNRVVRNFGGGTKLTVL
notes: also called 51A12_H3 IgG1-converted antibody
binding result [1]: binds

B6: 51A12_D1 human IgG1 antibody (antibody, V domains shown)
VH: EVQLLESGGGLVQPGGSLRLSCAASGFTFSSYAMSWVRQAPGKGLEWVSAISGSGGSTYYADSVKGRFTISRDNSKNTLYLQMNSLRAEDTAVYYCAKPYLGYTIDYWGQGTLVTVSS
VL: SSELTQDPAVSVALGQTVRITCQGDSLRSYYASWYQQKPGQAPVLVIYGKNNRPSGIPDRFSGSSSGNTASLTITGAQAEDEADYYCNSRTYSYNRAVRPFGGGTKLTVL
notes: also called 51A12_D1 IgG1-converted antibody
binding result [3]: binds

B10: 52C4 IgG (antibody, V domains shown)
VH: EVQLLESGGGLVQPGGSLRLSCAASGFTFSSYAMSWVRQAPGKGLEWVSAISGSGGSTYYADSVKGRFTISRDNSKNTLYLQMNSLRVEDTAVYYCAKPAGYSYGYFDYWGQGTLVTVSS
VL: SSELTQDPAVSVALGQTVRITCQGDSLRSYYASWYQQKPGQAPVLVIYGKNNRPSGIPDRFSGSSSGNTASLTITGAQAEDEADYYCNSGASSGNQLVFGGGTKLTVL
notes: also called 52C4 human IgG1 antibody
Kd [9]: 0.89 nM
koff [9]: 0.000499 s⁻¹
kon [9]: 557000 M⁻¹ s⁻¹
binding result [10]: binds

More lines, now with the values ahead:

binding result [2]: binds
B7: 51A12_C1 human IgG1 antibody (antibody, V domains shown)
VH: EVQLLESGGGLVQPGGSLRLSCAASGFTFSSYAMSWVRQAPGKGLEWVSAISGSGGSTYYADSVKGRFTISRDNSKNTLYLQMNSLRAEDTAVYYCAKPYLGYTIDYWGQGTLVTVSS
VL: SSELTQDPAVSVALGQTVRITCQGDSLRSYYASWYQQKPGQAPVLVIYGKNNRPSGIPDRFSGSSSGNTASLTITGAQAEDEADYYCNSRSYAFNRVVRNFGGGTKLTVL
notes: also called 51A12_C1 IgG1-converted antibody

binding result [4]: binds
B8: ASGPR 5A4 (antibody, V domains shown)
VH: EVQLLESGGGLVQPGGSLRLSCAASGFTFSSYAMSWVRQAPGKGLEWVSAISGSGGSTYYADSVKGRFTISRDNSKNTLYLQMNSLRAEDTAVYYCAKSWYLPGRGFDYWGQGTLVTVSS
VL: SSELTQDPAVSVALGQTVRITCQGDSLRSYYASWYQQKPGQAPVLVIYGKNNRPSGIPDRFSGSSSGNTASLTITGAQAEDEADYYCNSRLRSGKMVVFGGGTKLTVL
notes: the list has only its Fab and its IgG-IFNα conjugate; also called 5A4 IgG; 5A4 human IgG1 antibody

binding result [5]: no binding
Kd [6]: 4.3 nM
koff [6]: 0.00105 s⁻¹
kon [6]: 244000 M⁻¹ s⁻¹
Kd [7]: 3.76 nM
koff [7]: 0.0014 s⁻¹
kon [7]: 372000 M⁻¹ s⁻¹
binding result [8]: no binding
B9: 5A4 Fab (Fab, V domains shown)
VH: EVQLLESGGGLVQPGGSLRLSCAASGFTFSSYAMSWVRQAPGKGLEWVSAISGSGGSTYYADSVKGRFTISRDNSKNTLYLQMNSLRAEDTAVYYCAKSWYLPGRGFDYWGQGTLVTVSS
VL: SSELTQDPAVSVALGQTVRITCQGDSLRSYYASWYQQKPGQAPVLVIYGKNNRPSGIPDRFSGSSSGNTASLTITGAQAEDEADYYCNSRLRSGKMVVFGGGTKLTVL
notes: Human lambda Fab from E. coli
